According to patent US20030224997A1:
Positions of bridges follow the written chain, without caps; N, C: chain ends. No end group written: not given here. *: point of attachment. Biotin = O=C1N[C@H]2[C@H](CS[C@H]2CCCCC(=O)*)N1

Assays:
[1] = molecular target: protein on the CEM cell surface that binds L1AD3 (L1AD3 protein receptor, 27-35 kDa) (human)
[2] = molecular target: protein on the CEM cell surface that binds L1AD3 (L1AD3 protein receptor, 27-35 kDa) (human); remark: listed apart in the source
[3] = molecular target: protein on the CEM cell surface that binds L1AD3 (L1AD3 protein receptor, 27-35 kDa) (human); assay: fluorescence spectroscopy, CEM cells in suspension, avidin-FITC

## LKCNKLVPLFYKTC (disulfide 3-14) [L1AD3 peptide (…), cyclized]
[1]
  percent inhibition of binding of biotinylated L1AD3: 50%
[2]
  percent reduction of binding of biotinylated peptide: 47%

## Biotin-LKCNKLVPLFYKTC (disulfide 3-14) [biotinylated L1AD3 (btn-…), cyclized]
[2]
  Kd: 6 µM
[3]
  fluorescence increase over cells not incubated with biotinylated peptide: 48%
